The values below come from patent US20170349669A1 (Hoffmann-La Roche, published 2017).

Assay [1] deals with T1, human VEGFA-121-His (human, UniProt P15692-9 27-147).
T1 construct: Captured on an anti-His antibody surface; P15692 is the canonical VEGF-A entry, and the 121 isoform is one of its splice forms; also called VEFGA-121-His; not shown: His tag
T1 sequence (looked up): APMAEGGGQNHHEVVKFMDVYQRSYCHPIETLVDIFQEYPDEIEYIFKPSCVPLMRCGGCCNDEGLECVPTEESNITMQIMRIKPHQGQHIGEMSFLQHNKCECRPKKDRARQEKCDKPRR
As to the kind of experiment: SPR Biacore T200, VEGFA-121-His captured via anti-His, antibody as analyte, 1:1 Langmuir. How it is done: (§1) Binding of indicated antibodies to human VEGFA-121 was investigated by surface plasmon resonance using a BIACORE® T200 instrument (GE Healthcare). Around 10000 (RU) of anti His antibody (1 μg/ml anti His antibody; Order Code: 28995056; GE Healthcare Bio-Sciences AB, Sweden) were coupled on a Series S CM5 chip (GE Healthcare BR-1005-30) at pH 5.0 by using an amine coupling kit supplied by the GE Healthcare. HBS-N (10 mM HEPES, 150 mM NaCl pH 7.4, GE Healthcare) was used as running buffer during the immobilization procedure. For the following kinetic characterization, sample and running buffer was PBS-T (10 mM phosphate buffered saline including 0.05% Tween20) at pH 7.4. The flow cell was set to 25° C.—and the sample block set to 12° C.—and primed with running buffer twice prior to kinetic characterization.
(§2) VEFGA-121-His was captured by injecting a 0.5 μg/ml solution for 30 sec at a flow of 5 μl/min. The association was measured by injection of the indicated antibodies in various concentrations in solution for 180 sec at a flow of 30 μl/min starting with 1000 nM in 1:3 serial dilutions. The dissociation phase was monitored for up to 600 sec and triggered by switching from the sample solution to running buffer. The surface was regenerated by 60 sec washing with a Glycine pH 1.5 solution at a flow rate of 30 μl/min. Bulk refractive index differences were corrected by subtracting the response obtained from a anti His antibody surface. Blank injections are also subtracted (=double referencing). For calculation of KD and other kinetic parameters the Langmuir 1:1 model was used.
On the technique in general: In SPR one partner is held on a chip, and binding of the other changes the refractive index at the surface.

For assay [2], the target named is T2, human Ang-2-RBD-Fc (human, UniProt O15123 275-496, limits assumed).
T2 construct: domain: RBD; Used as analyte in solution; The KD is called apparent; not shown: Fc part
T2 sequence (looked up): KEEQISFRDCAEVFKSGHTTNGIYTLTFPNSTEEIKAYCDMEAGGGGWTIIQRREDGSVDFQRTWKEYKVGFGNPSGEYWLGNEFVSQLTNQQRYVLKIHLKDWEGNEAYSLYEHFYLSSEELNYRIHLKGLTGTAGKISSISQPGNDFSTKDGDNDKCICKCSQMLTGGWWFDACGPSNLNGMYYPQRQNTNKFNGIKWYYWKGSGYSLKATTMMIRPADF
As to the kind of experiment: SPR Biacore T200, apparent KD, antibody captured via anti-human F(ab')2, Ang2-RBD-Fc as analyte. How it is done: (§3) Binding of indicated antibodies to human Ang-2-RBD-Fc was investigated by surface plasmon resonance using a BIACORE® T200 instrument (GE Healthcare). Around 8000 (RU) of goat anti human F(ab′)₂ (10 μg/ml anti human F(ab)′₂; Order Code: 28958325; GE Healthcare Bio-Sciences AB, Sweden) were coupled on a Series S CM5 chip (GE Healthcare BR-1005-30) at pH 5.0 by using an amine coupling kit supplied by the GE Healthcare. HBS-N (10 mM HEPES, 150 mM NaCl pH 7.4, GE Healthcare) was used as running buffer during the immobilization procedure. For the following kinetic characterization, sample and running buffer was PBS-T (10 mM phosphate buffered saline including 0.05% Tween20) at pH 7.4. The flow cell was set to 25° C.—and the sample block set to 12° C.—and primed with running buffer twice prior to kinetic characterization.
(§4) The bispecific antibody was captured by injecting a 5 nM solution for 25 sec at a flow of 5 μl/min. The association was measured by injection of human Ang2-RBD-Fc in various concentrations in solution for 120 sec at a flow of 30 μl/min starting with 100 nM in 1:3 serial dilutions. The dissociation phase was monitored for up to 180 sec and triggered by switching from the sample solution to running buffer. The surface was regenerated by 60 sec washing with a Glycine pH 2.1 solution at a flow rate of 30 μl/min. Bulk refractive index differences were corrected by subtracting the response obtained from a goat anti human F(ab′)₂ surface. Blank injections are also subtracted (=double referencing). For calculation of apparent KD the Langmuir 1:1 model was used.

The target of assay [3] is T1, human VEGFA-121-His. As to the kind of experiment: SPR Biacore T200, VEGFA-121-His captured via anti-His, antibody as analyte, 1:1 Langmuir. How it is done: as §1, §2
This is another data set of the same source.

Assay [4] has as its target T2, human Ang-2-RBD-Fc. As to the kind of experiment: SPR Biacore T200, apparent KD, antibody captured via anti-human F(ab')2, Ang2-RBD-Fc as analyte. The procedure: as §3, §4
This is another data set of the same source.

The target in another assay is T3, TWEAK (human, UniProt O43508 94-249, limits assumed).
T3 construct: The assay paragraph says only 'TWEAK'; also called human TWEAK; TNF-related weak inducer of apoptosis
T3 sequence (looked up): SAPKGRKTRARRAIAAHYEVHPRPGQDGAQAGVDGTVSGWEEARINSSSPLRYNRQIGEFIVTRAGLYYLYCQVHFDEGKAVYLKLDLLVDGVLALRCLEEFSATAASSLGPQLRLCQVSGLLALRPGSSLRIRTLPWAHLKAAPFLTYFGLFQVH
As to the kind of experiment: SPR Biacore T200 25 C, apparent KD, TWEAK amine-coupled on C1 chip, antibody as analyte.

In another assay the target is T4, human IL17 (human, UniProt Q16552 24-155).
T4 construct: Used as analyte in solution; also called IL17-A
T4 sequence (looked up): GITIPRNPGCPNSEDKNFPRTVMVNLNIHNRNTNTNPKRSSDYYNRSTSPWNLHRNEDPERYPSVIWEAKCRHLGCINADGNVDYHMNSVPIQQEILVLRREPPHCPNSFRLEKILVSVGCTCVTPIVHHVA
As to the kind of experiment: SPR Biacore T200 25 C, antibody captured via anti-human F(ab')2, human IL17 as analyte, 1:1 Langmuir. How it is done: Around 6000 resonance units (RU) of the capturing system (15 μg/ml goat anti human F(ab′)2; Order Code: 28958325; GE Healthcare Bio-Sciences AB, Schweden) were coupled on a CM5 chip at pH 5.0 by using an amine coupling kit supplied by the GE Healthcare. The sample and system buffer was PBS-T (10 mM phosphate buffered saline including 0.05% Tween 20) pH 7.4. The bispecific antibody was captured by injecting a 50 nM solution for 90 sec at a flow of 10 μl/min. Association was measured by injection human IL17 in various concentrations in solution for 3 min at a flow of 30 μl/min starting with 50 nM in 1:1 serial dilutions. The dissociation phase was monitored for up to 10 min and triggered by switching from the sample solution to running buffer. The surface was regenerated twice by 60 sec wash with a 10 mM glycine pH 2.1 solution at a flow rate of 30 μl/min. Bulk refractive index differences were corrected by subtracting the response obtained from a goat anti human F(ab′)2 surface. Blank injections are also subtracted (=double referencing). For calculation of apparent KD and other kinetic parameters, the Langmuir 1:1 model was used.

Residue numbers refer to the chain shown, from its start. Like-named read-outs stand apart in the source and are kept apart here.

B1: Ang2VEGF_467 (bispecific antibody, human IgG1, kappa)
heavy 1: not shown
light 1: EVQLVESGGGLVQPGGSLRLSCAASGYTFTNYGMNWVRQAPGKGLEWVGWINTYTGEPTYAADFKRRFTFSLDTSKSTAYLQMNSLRAEDTAVYYCAKYPHYYGSSHWYFDVWGQGTLVTVSSASTKGPSVFPLAPSSKSTSGGTAALGCLVKDYFPEPVTVSWNSGALTSGVHTFPAVLQSSGLYSLSSVVTVPSSSLGTQTYICNVNHKPSNTKVDKKVEPKSC
heavy 2: not shown
light 2: QPGLTQPPSVSVAPGQTARITCGGNNIGSKSVHWYQQKPGQAPVLVVYDDSDRPSGIPERFSGSNSGNTATLTISRVEAGDEADYYCQVWDSSSDHYVFGTGTKVTVLRTVAAPSVFIFPPSDKKLKSGTASVVCLLNNFYPREAKVQWKVDNALQSGNSQESVTEQDSKDSTYSLSSTLTLSKADYEKHKVYACEVTHQGLSSPVTKSFNRGEC
notes: Wild type CH3 domains, no knob-into-hole
As for B1, the Kd with human VEGFA-121-His [1] was found to be 17 nM; with human Ang-2-RBD-Fc [2], 0.5 nM.

B2: Ang2VEGF_290 (bispecific antibody, human IgG1, kappa, lambda)
heavy 1: not shown
light 1: B1 light 1
heavy 2: not shown
light 2: QPGLTQPPSVSVAPGQTARITCGGNNIGSKSVHWYQQKPGQAPVLVVYDDSDRPSGIPERFSGSNSGNTATLTISRVEAGDEADYYCQVWDSSSDHYVFGTGTKVTVLGQPKAAPSVTLFPPSSEELQANKATLVCLISDFYPGAVTVAWKADSSPVKAGVETTTPSKQSNNKYAASSYLSLTPEQWKSHRSYSCQVTHEGSTVEKTVAPTECS
notes: The Ang2 arm has a lambda light chain; also called Ang2VEGF-0290 (wt); Ang2VEGF-0290
With B2, the Kd worked out at 8 nM in the assay with human VEGFA-121-His [3] and 3 nM with human Ang-2-RBD-Fc [4].

B3: Ang2VEGF_279 (bispecific antibody, human IgG1, kappa, lambda)
heavy 1: not shown
light 1: B1 light 1
heavy 2: not shown
light 2: B2 light 2 with E125K, E126K
notes: The Ang2 arm has a lambda light chain; also called Ang2VEGF-0279
As to B3, the Kd in the assay with human VEGFA-121-His [3] was 6 nM; with human Ang-2-RBD-Fc [4], 5 nM.

B4: Ang2VEGF_468 (bispecific antibody, human IgG1, kappa)
heavy 1: not shown
light 1: B1 light 1
heavy 2: not shown
light 2: B1 light 2
notes: as for B1
As to B4, the Kd with human VEGFA-121-His [1] stood at 22 nM; in the assay with human Ang-2-RBD-Fc [2], 0.5 nM.

B5: TweakIL17_101 (bispecific antibody, human IgG4 S228P, kappa)
heavy 1: DIQMTQSPSSVSASVGDRVTITCQASQNIYSNLAWYQQKPGKAPKLLIYTASYLASGVPSRFSGSGSGTDYTLTISSLQPEDFATYYCQTAYYNSRPDTVAFGGGTKVEIKRTVAAPSVFIFPPSDEQLKSGTASVVCLLNNFYPREAKVQWKVDNALQSGNSQESVTEQDSKDSTYSLSSTLTLSKADYEKHKVYACEVTHQGLSSPVTKSFNRGECPPCPPCPAPEFEGGPSVFLFPPKPKDTLMISRTPEVTCVVVDVSQEDPEVQFNWYVDGVEVHNAKTKPREEQFNSTYRVVSVLTVLHQDWLNGKEYKCKVSNKGLPSSIEKTISKAKGQPREPQVYTLPPCQEEMTKNQVSLWCLVKGFYPSDIAVEWESNGQPENNYKTTPPVLDSDGSFFLYSRLTVDKSRWQEGNVFSCSVMHEALHNHYTQKSLSLSL
light 1: QVQLVQSGAEVKKPGSSVKVSCKASGFDFSTYYMSWVRQAPGQGLEWMGTVYVRQGTTYYASWLNGRVTITADESTSTAYMELSSLRSEDTAVYYCARGGYNYDDAFVIWGQGTLVTVSSASTKGPSVFPLAPCSRSTSESTAALGCLVKDYFPEPVTVSWNSGALTSGVHTFPAVLQSSGLYSLSSVVTVPSSSLGTKTYTCNVDHKPSNTKVDKRVESKYG
heavy 2: EVQLVESGGGLVQPGGSLRLSCAASGFSLDSYGVHWVRQATGKGLEWVSVIWSDGTTTYNSALKSRFTISRENAKNSLYLQMNSLRAGDTAVYYCARDTHYRLYYYAMDYWGQGTTVTVSSASTKGPSVFPLAPCSRSTSESTAALGCLVKDYFPEPVTVSWNSGALTSGVHTFPAVLQSSGLYSLSSVVTVPSSSLGTKTYTCNVDHKPSNTKVDKRVESKYGPPCPPCPAPEFEGGPSVFLFPPKPKDTLMISRTPEVTCVVVDVSQEDPEVQFNWYVDGVEVHNAKTKPREEQFNSTYRVVSVLTVLHQDWLNGKEYKCKVSNKGLPSSIEKTISKAKGQPREPQVCTLPPSQEEMTKNQVSLSCAVKGFYPSDIAVEWESNGQPENNYKTTPPVLDSDGSFFLVSRLTVDKSRWQEGNVFSCSVMHEALHNHYTQKSLSLSL
light 2: DIVMTQSPLSLPVTPGEPASISCRSSQSLVHSNGDTYFHWYLQKPGQSPQLLIYKVSNRFSGVPDRFSGSGSGTDFTLKISRVEAEDVGVYYCSQTTHAPFTFGQGTKLEIKRTVAAPSVFIFPPSDEQLKSGTASVVCLLNNFYPREAKVQWKVDNALQSGNSQESVTEQDSKDSTYSLSSTLTLSKADYEKHKVYACEVTHQGLSSPVTKSFNRGEC
notes: also called TweakIL17_101 (wt); TweakIL17_0101
For the molecule B5, the values for the Kd in the assay with TWEAK and with human IL17 were < 0.1 nM and 0.1 nM, respectively.

B6: TweakIL17_0128 (bispecific antibody, human IgG4 S228P, kappa)
heavy 1: B5 heavy 1 with Q38E, Q128E
light 1: B5 light 1 with Q39K
heavy 2: B5 heavy 2 with Q39E, K151E, K217E
light 2: B5 light 2 with Q43K, E128K, Q129K
notes: also called TweakIL17_128
As for B6, the Kd in the assay with TWEAK was < 0.1 nM; in the assay with human IL17, 0.1 nM.

B7: TweakIL17_103 (bispecific antibody, human IgG4 S228P, kappa)
heavy 1: B5 heavy 1 with Q128E
light 1: B5 light 1
heavy 2: B5 heavy 2 with K151E, K217E
light 2: B5 light 2 with E128K, Q129K
notes: also called TweakIL17_0103
Regarding B7, the figures for the Kd with TWEAK and in the assay with human IL17 were < 0.1 nM and 0.1 nM, respectively.
